This is an account of results in article PMC6550519, “Regulatory Mechanism of Nicotine Degradation in Pseudomonas putida” (mBio, 2019).

In data set [1] the target is NicR2. The data set is described as follows: ITC, […] HSP titrated into […] purified free NicR2; supported by EMSA. It counts as binding, Pseudomonas putida.
Data set [2] has as its system NicR2 (Pseudomonas putida S16). Put plainly: ITC. Particulars: EMSA: 10 mM Tris-HCl, 100 mM NaCl, 27 nM DNA, 180 nM NicR2, 30 min room temperature, 9% native PAGE; ITC: PBS, 64 uM NicR2 in cell, 100 uM DNA titrant ….

For `O=C(O)CCC(=O)c1ccc(O)nc1` [HSP, 6-hydroxy-3-succinoyl-pyridine], the Kd in data set [1] amounted to 4.95 ± 0.48 µM.

Compound “CACTAATTATACCGTCGTACATAGAATAAA (double strand) [R-m3 30 bp]” had a Kd in data set [2] of 1.8 µM.

“CACTAATTATACCGTCGTACATATAATAAA (double strand) [wild type 30 bp (Pspm inverted repeat)]” returned a Kd in data set [2] of 0.18 µM.

“CACTAATTATACCGTCGTACATATCCTAAA (double strand) [R-m12 30 bp]” returned a dissociation constant Kd in data set [2] of 0.14 µM.

“CACTAATTATACCGTCGTACATCTAATAAA (double strand) [R-m4 30 bp]” displayed a Kd in data set [2] of 0.57 µM.
